We go through 74 sequences from the supplement of paper PMC12636428.

The subject of this data set is Saccharomyces cerevisiae. The data set is described as follows: transcriptional activation domain activity (GFP:mCherry ratio, weighted mean of sorted bins, harmonized to initial dataset scale) (arbitrary fluorescence ratio units); higher = stronger transcriptional activation. As to conditions: beta-estradiol 1 µM; induction time 4 h. The method in brief: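 After a 1:5 dilution into SC with 1 uM beta-estradiol and 4 hours at 30 °C, yeast diploids carrying a GFP reporter and URA3-integrated barcoded tiles were sorted into 8 bins by GFP:mCherry ratio. The tiles were fused to an estradiol-inducible synthetic transcription factor. Barcodes were sequenced, tiles below 50 reads were discarded, and activation activity was taken as the read-weighted mean of bin median fluorescence, averaged across barcodes and linearly mapped onto the initial dataset scale.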

Consider “LHGSIHEGLCRMLINIFIENLVLKEDVLLALCIQVLFPKEYITKGLMDAIKKD”, for which the “transcriptional activation domain activity” value came to 13900.

On to “LHKRLEVTAYITCTRVIQRVVWFLLQGKYRLDYYWEEVWRALLNLLDFISNKI”, for which the “transcriptional activation domain activity” value stood at 71300.

Turning to “LHLCLQVTKAYLERFHKFDPADITVCCSSVMFHFACAMKVLYRLLLLDDPGWD”, the “transcriptional activation domain activity” value was 59900.

Consider “LHLFGLVLVWVSYLLFWVFLLFSFVYPDWLLALFILRIILFLFSFSVILFYFI”, for which the “transcriptional activation domain activity” value is 47100.

Turning to “LHLFTNIDILKYDYGHIREDHIWVCLMHFTKRSRVVRWLVKSIYRPLLLGGLR”, the “transcriptional activation domain activity” value worked out at 77200.

On to “LHLMLQKLCFAATLRIATLPDKHPLHPFVKRVYRYLFLKSHRAPRHNLFEAFQ”, for which the “transcriptional activation domain activity” value came out at 55000.

For “LHNRFGAFTPSKTPKSVFVVTYLGRVFITIMFCLVVVIAALTIKYSADSNNLY”, the “transcriptional activation domain activity” value was 9590.

“LHPAPSSPSSTPRRRAAASTTATRTPAPAPTRTRRCSSSTKPPTASSSTPPRR”: the “transcriptional activation domain activity” value worked out at 57400.

Turning to “LHQFDHFGYQQVFSVRWMKKHLHDVSGGVMLHVIKYMANILSSLLAPMGYFEM”, the “transcriptional activation domain activity” value was 29600.

For the sequence “LHQRVHEQGLYDCHYSNYFIDLLRYLVLLGLFVVSFYKEYYLVSSCFLGCFWH”, the “transcriptional activation domain activity” value was 57400.

“LHQSGITHVYYLVENYSKQILLSHFLLNDISFRGWIMLLRNMSFRSIRHCQST”: the “transcriptional activation domain activity” value was 54800.

“LHRLHLARVTVDKEGKLVSTTNMTILNLWLVWRGPMREDRLTIEITLFQAFVG”: the “transcriptional activation domain activity” value is 26400.

On to “LHRYPIIRRGVALQTGKGKRKRMYQLIVVGNGDGLVGYGEGKNEDMGMAASKS”, for which the “transcriptional activation domain activity” value worked out at 28500.

For “LHSFRRQNGFIRLNIWDLNPSPKILQLYLLTQTIKRYIVLCLLLNLGFTIAQC”, the “transcriptional activation domain activity” value stood at 60700.

Turning to “LHYIYVVAISKSLSRLTLSYYTPAQLAMIGYFNLHIIWLKLMIPWRFFRLWSL”, the “transcriptional activation domain activity” value amounted to 43200.

Consider “LIAGWCCLLSASCGIFYCIFRAIAIYVPEFNCRVVLWCFAILKVISILCHAAV”, for which the “transcriptional activation domain activity” value was 32700.

Turning to “LIALPCLMAFATICFAFVAWKLYGEFAWTIYKHISADLRLKRRYLTYQIYIAL”, the “transcriptional activation domain activity” value stood at 50200.

With “LIFCVHMTVILFVILFCYLNRGFVPMTNGKYFYADFRISNTWGFITSLTLVLN”, the “transcriptional activation domain activity” value turned out to be 38100.

On to “LIFSLKVLVMLICIIMIEFYITYAVAVGYIYAVAILEPFRPQLAVAFTWIRPV”, for which the “transcriptional activation domain activity” value was determined as 66600.

In the case of “LIFTSVHFLVFNIGDLLGRYLCLVPQLLLWDASKLLTLSLLRTFFIPLFLACN”, the “transcriptional activation domain activity” value amounted to 38500.

Consider “LIGCCVVYSLLSSFLLIFQCIPVSLAWNRWDGEHHGHCTNLVPLTWITALLNV”, for which the “transcriptional activation domain activity” value is 58900.

As for “LIGMDQDVLGRWSQVIGEKGEGSLFSLALGPHQSNWLVLIRQACLLLLRSVAA”, the “transcriptional activation domain activity” value was found to be 51200.

Turning to “LIHFFRLYRSGHGPIRMFFLHIQALYNLFNLIFSWFALANLWLTFSIIIRLVP”, the “transcriptional activation domain activity” value amounted to 70000.

As for “LIHLMNIAQVVILFVHRFIFGVIPLFEIKTCSFWPLLVSLWHLNYIIIYSIMF”, the “transcriptional activation domain activity” value came out at 51600.

As to “LIHLMNIGQVSILFIHRFLYGLVPLFEITTCAFWPLLVSLWHLNFVLMYCIMF”, the “transcriptional activation domain activity” value came to 66000.

As to “LIHVVNLAQVLAVLIHRTVYGLLPIFEVMSCAIFPFLVSMWHIAFLLMYTVML”, the “transcriptional activation domain activity” value came to 45700.

With “LIIDVFPPPPPLLSLFFFLSLSLFFSSSFLLFSFASLLSVQLWRGLIVLFVFL”, the “transcriptional activation domain activity” value stood at 62900.

On to “LIIPIIMDHLYPVPYMAFWDVSCFVNKVYFMQIVWLFNLPFLLHLLITLICYP”, for which the “transcriptional activation domain activity” value came out at 68100.

Consider “LIKKVKNEKQMYPILVCVLRLYDYVTHIMLIECQCEGIQSAFVSNQLSVKDTG”, for which the “transcriptional activation domain activity” value came out at 52700.

As for “LILARRKGDDRFRRIFMFTMCRLLVTRNHNPDLRRLVTEYLLNVDRFMILLLG”, the “transcriptional activation domain activity” value was 59000.

For the sequence “LILEPPPAGGADGGPPTRSVPSSALRVGDLVLLEKNQRVPADCVLLRTSDAAG”, the “transcriptional activation domain activity” value was 58800.

Take “LILGLVHFLYVFFVQIFSHNFTLIPLALDCNFTWEYSVTFVWIGLHTLVAFPI”: the “transcriptional activation domain activity” value worked out at 54500.

As for “LILILLIWRYCWYDGVIVNKIRAIGNDFCIWNPRMGEPLWTEYSHLVAKCLLF”, the “transcriptional activation domain activity” value stood at 62700.

Regarding “LILLRLLWPVTLYFFVSLMYSLLSLAFGVPFSRNFGHAGFLIYWMMSWCSMSA”, the “transcriptional activation domain activity” value worked out at 62400.

“LILNCYWIVLVAFTFNMEVEYCKIVSVVGKLSSKFLGRVQVFLLLFMLMLFLV”: the “transcriptional activation domain activity” value was 50600.

Take “LILRMQVATLTKLWGLPPEFEIVCRDIWALHLSLLPDPPPPEPYYFHERGDGM”: the “transcriptional activation domain activity” value stood at 34400.

For the sequence “LINYLLVLLVFRKWLKGHQVPLFVIMSYAWTRQLSFMDNVRRTNKRATLAMLR”, the “transcriptional activation domain activity” value came to 57200.

With “LIPIVVLNMYSLLMLLFIRGWFSYLIAVVSISGVLVLHMLYFLLQWRLKYILW”, the “transcriptional activation domain activity” value was found to be 65600.

Consider “LIPTEGGELALGGAPLEDEDESTSDEEETPKASFQARLERLRKRMDGRPIKDI”, for which the “transcriptional activation domain activity” value amounted to 26300.

Take “LIRAVWSHFKADFNAIYLGRLLVLLAYQKRRPRPPTGYNLGHHADPGLHTFWA”: the “transcriptional activation domain activity” value is 38200.

With “LIRIKDFTPNEVAAVVTYYSCRTNGMIPLTGRKWLGRIICRCLPLFDMLLFYR”, the “transcriptional activation domain activity” value was found to be 37500.

As to “LISRLFAVKEVTKIQDINLEFDIACLWPLVPLSSWVMDYIVTVMQAWSLLFNR”, the “transcriptional activation domain activity” value came out at 59400.

In the case of “LITIPINYTVYIFVLFPFYVLSGTLCVGYYFHSYSPEFWLLRAWDFFFCFIPM”, the “transcriptional activation domain activity” value stood at 74300.

“LIVGGGATGAGTALDAASRGLKVALVERDDFSAGTSSKSTKLVHGGVRYLQKA”: the “transcriptional activation domain activity” value turned out to be 51800.

As for “LIVIRIVNPVIMYFFISCFYSLLSVAFQVPFNRYYGSSGFVIYWMMSWLAMCA”, the “transcriptional activation domain activity” value was 55900.

For “LIVMRDRVEIIMLLWPIINIAFVILVGYDSDVTKSIRRLRQKYWSSLSVMAST”, the “transcriptional activation domain activity” value is 68600.

For “LIVSWSGNYVVQHHSTRINLIDFMDSNYISHLCVYLGFSIADVCYQLTMLWMI”, the “transcriptional activation domain activity” value is 77700.

Turning to “LIVTALVWLFQASTEQFTFVALLMYRLKYPVRRVAWLLKFSAIQNLIPKFGFA”, the “transcriptional activation domain activity” value is 61200.

Take “LIVVCPCLNRAHPTCLKELQTDYICNMCNSIYQLKYIRFAQLLCFACHVLSLA”: the “transcriptional activation domain activity” value came out at 84300.

For “LIVVFAQSKIDSDEASVPVDEELNGVSLLVRILSDSAGRIYMIVTLELLLKRN”, the “transcriptional activation domain activity” value stood at 53600.

For the sequence “LIVVLILAPHPSLFRMLLRHHLQTLQQPFYFVIHLLVTYTLTFCAFSSLIICA”, the “transcriptional activation domain activity” value came to 53700.

On to “LIVVTLSWDVAVIITFLKHRITLRRLKMQSFLSLSFLFKMLIICIFRFFIGVC”, for which the “transcriptional activation domain activity” value turned out to be 88200.

Consider “LIWSCKLIWAAYLDMYRYHIYVLVSFEVVALLTWILTLLYGVPNLINLVYHAY”, for which the “transcriptional activation domain activity” value worked out at 56300.

With “LIYNVCTFSLFWIVYRYNLLYVNNFRFDTSGLLFPRALDQLFTGIYVMAVCLI”, the “transcriptional activation domain activity” value was determined as 89400.

As for “LIYQKLPRVLKRPGWNFHPAVALTFSILLFAAYPLICFFNILIAWSNEVSFHN”, the “transcriptional activation domain activity” value was 54300.

For the sequence “LKALQLGCYNYFLLGGSCVSGPVGLLAGIIRQPLVLFYHFFSVALYAIWLRVA”, the “transcriptional activation domain activity” value was found to be 81200.

Consider “LKDEVMKIKPVQKQTRAGQRTRFKAVVIVGDSNGHVGLGIKTAKEVATAIRAA”, for which the “transcriptional activation domain activity” value is 81600.

Consider “LKEKSLRILILNGLVRLIWTYLYRCQESPSTTTTKLENLLKYLFPPNRTSVYP”, for which the “transcriptional activation domain activity” value stood at 44900.

For the sequence “LKGDHLDAVMVPKCESAADLHFVTDVIRHLRPDRHPSSTASASSSGSRREPVR”, the “transcriptional activation domain activity” value was found to be 33200.

In the case of “LKHGMMRLDFLCKFSMYGGIERDNQFVKKATGVAFPCVFVLRCLKRPVLTESE”, the “transcriptional activation domain activity” value was 55100.

Take “LKIKLLVAWLWLLDTIHTCLLCSSNWRSLIVHYGDRRALDFIPTTTALGILFT”: the “transcriptional activation domain activity” value was 34100.

“LKIKLLVVWFWLLDAIHICMLCSSNWRDLIVHYGDRRTLDYIPPTTALAILFT”: the “transcriptional activation domain activity” value came out at 79600.

Turning to “LKIYLLNPLHMTRFADLLYQGAIMNRVIQPYESHLQYLLQWMCDYNLYGCGYI”, the “transcriptional activation domain activity” value worked out at 75800.

With “LKKHDVNALVTVICNFLICITMALCVVWDSELLPDCLFRVKLIYTLITLGFLC”, the “transcriptional activation domain activity” value came out at 63400.

Take “LKLLVCVLWCLDTFDFILNCNLLYLFLVTNYMNPLILIKRPPWSLVLHVAVTV”: the “transcriptional activation domain activity” value stood at 53400.

As to “LKNLMATIGLTRKVLFTGRQLEFYLAAVKLLATKDVFVKWTAIAKNFFMIVWV”, the “transcriptional activation domain activity” value is 55500.

Regarding “LKQMAGRDFEDILQCIMPVFEGLLPPPHDDLVMSLLFTLAFWHALAKLRLHTE”, the “transcriptional activation domain activity” value stood at 56300.

“LKSKALDAKVPIGLFTVLFFHPFLFPFCSLFPALFAPSFLFLFPLCFVTHFFL”: the “transcriptional activation domain activity” value was determined as 52400.

“LKSKSVVSSRTAEEKKEISGALGEGMLQQLVVLLGQVPRIILLILKTNDLTRS”: the “transcriptional activation domain activity” value is 52200.

Take “LLAVDPNVWSHFDIVVLEFSRHYIHFHWKSLLWLVGPVVVWGWMVCTLLVWFI”: the “transcriptional activation domain activity” value was found to be 49400.

In the case of “LLAWGYVLFNPFAIYSLPYTVLFAFLSLSYLVLTFVLTLPSSLPFYHSKYWFQ”, the “transcriptional activation domain activity” value is 66900.

Turning to “LLCILLLVYFIYVALFLVSINTGVTLSGLNIQMSSKYSVYYLLIYHVFGFFWL”, the “transcriptional activation domain activity” value stood at 58900.

Turning to “LLCKKVVAFFQLLSESHVSGMRRLGVTQELLSLVTGLAHYLKLLIRICLQGAL”, the “transcriptional activation domain activity” value amounted to 72100.

For the sequence “LLDELMNQTKVLQETLDFSLVTPTPHHNDDYKIHGSAYPGGETPAQQHEKLSY”, the “transcriptional activation domain activity” value stood at 35700.
